Columns and labels:
[1] = target: T1, CP5-46-4D5E; assay: cell-based or functional assay
T1 peptide: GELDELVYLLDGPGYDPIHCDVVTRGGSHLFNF

[2] = target: EGFP(R96M)-AlfaTag; assay: cell-based or functional assay

B1: NS4A/NS3 (Genotype 1B) (enzyme)
chain: GSVVIVGRIILSGSGSITAYSQQTRGLLGCIITSLTGRDKNQVEGEVQVVSTATQSFLATCVNGVCWTVYHGAGSKTLAGPKGPITQMYTNVDQDLVGWQAPPGARSLTPCTCGSSDLYLVTRHADVIPVRRRGDSRGSLLSPRPVSYLKGSSGGPLLCPSGHAVGIFRAAVCTRGVAKAVDFVPVESMETTMRS
With B1 the “fold change of the grazoprevir treated iADAR compared to DMSO treated, unmutated Pep-NS3 system, 4xUAG MS2 reporter, HEK293FT, flow cytometry (intramolecular pair)” value [1] was roughly 31 fold and the “ratio of mNeonGreen to mCherry (mNG/mCh), 2 µM grazoprevir against no drug, HEK cells, microscopy (intramolecular pair)” value [1] was roughly 18 fold.

B2: ALFA-Bcl dual input iADAR (other)
chain: MASNFTQFVLVDNGGTGDVTVAPSNFANGIAEWISSNSRSQAYKVTCSVRQSSAQNRKYTIKVEVPKGAWRSYLNMELTIPIFATNSDCELIVKAMQGLLKDGNPIPSAIAANSGIYGGSGSGAGSGSPAGGGAPGSGGGSTGAPPNLWAAQRYGRELRRMSDEFVDSFKKASQLHLPQVLADAVSRLVLGKFGDLTDNFSSPHARRKVLAGVVMTTGTDVKDAKVISVSTGTKCINGEYMSDRGLALNDCHAEIISRRSLLRFLYTQLELYLNNKDDQKRSIFQKSERGGFRLKENVQFHLYISTSPCGDARIFSPHEPILEEPAASGSGPGRLEEELRRRLSPGTGDRHPNRKARGQLRTKIESGQGTIPVRSNASIQTWDGVLQGERLLTMSCSDKIARWNVVGIQGSLLSIFVEPIYFSSIILGSLYHGDHLSRAMYQRISNIEDLPPLYTLNKPLLSGISNAEARQPGKAPNFSVNWTVGDSAIEVINATTGKDELGRASRLCKHALYCRWMRVHGKVPSHLLRSKITKPNVYHESKLAAKEYQAAKARLFTAFIKAGLGAWVEKPTEQDQYSLTGSGGTAEVQLQESGGGLVQPGGSLRLSCTASGVTISALNAMAMGWYRQAPGERRVMVAAVSERGNAMYRESVQGRFTVTRDFTNKMVSLQMDNLKPEDTAVYYCHVLEDRVDSFHDYWGQGTQVTVSSGAGSGASSNRELVVDFLSYKLSQKGYSWSQFSDVEENRTEAPEGTESEMETPSAINGNPSWHLADSPAVNGATGHSSSLDAREVIPMAAVKQALREAGDEFELRYRRAFSDLTSQLHITPGTAYQSFEQVVNELFRDGVNWGRIVAFFSFGGALCVESVDKEMQVLVSRIAAWMATYLNDHLEPWIQENGGWDTFVELYGNNGSSELIKENMHMKLYMEGTVDNHHFKCTSEGEGKPYEGTQTMRIKVVEGGPLPFAFDILATSFLYGSKTFINHTQGIPDFFKQSFPEGFTWERVTTYEDGGVLTATQDTSLQDGCLIYNVKIRGVNFTSNGPVMQKKTLGWEAFTETLYPADGGLEGRNDMALKLVGGSHLIANIKTTYRSKKPAKNLKMPGVYYVDYRLERIKEANNETYVEQHEVAVARYCDLPSKLGHKLN
With B2 the “median relative fluorescence of the 4xUAG-MS2 reporter, A-1331852 plus EGFP(R96M)-AlfaTag against A-1331852 alone, HEK293FT, flow cytometry” value [2] was roughly 110 fold.

Reference: patent US20240263193A1 (published 2024)
